# Measured values as given in IntAct's records for PubMed 10613896.
# B1: Arf-GAP domain and FG repeat-containing protein 1 (Homo sapiens), P52594 (parent)
# chain: MAASAKRKQEEKHLKMLRDMTGLPHNRKCFDCDQRGPTYVNMTVGSFVCTSCSGSLRGLNPPHRVKSISMTTFTQQEIEFLQKHGNEVCKQIWLGLFDDRSSAIPDFRDPQKVKEFLQEKYEKKRWYVPPEQAKVVASVHASISGSSASSTSSTPEVKPLKSLLGDSAPTLHLNKGTPSQSPVVGRSQGQQQEKKQFDLLSDLGSDIFAAPAPQSTATANFANFAHFNSHAAQNSANADFANFDAFGQSSGSSNFGGFPTASHSPFQPQTTGGSAASVNANFAHFDNFPKSSSADFGTFNTSQSHQTASAVSKVSTNKAGLQTADKYAALANLDNIFSAGQGGDQGSGFGTTGKAPVGSVVSVPSQSSASSDKYAALAELDSVFSSAATSSNAYTSTSNASSNVFGTVPVVASAQTQPASSSVPAPFGATPSTNPFVAAAGPSVASSTNPFQTNARGATAATFGTASMSMPTGFGTPAPYSLPTSFSGSFQQPAFPAQAAFPQQTAFSQQPNGAGFAAFGQTKPVVTPFGQVAAAGVSSNPFMTGAPTGQFPTGSSSTNPFL
# partner: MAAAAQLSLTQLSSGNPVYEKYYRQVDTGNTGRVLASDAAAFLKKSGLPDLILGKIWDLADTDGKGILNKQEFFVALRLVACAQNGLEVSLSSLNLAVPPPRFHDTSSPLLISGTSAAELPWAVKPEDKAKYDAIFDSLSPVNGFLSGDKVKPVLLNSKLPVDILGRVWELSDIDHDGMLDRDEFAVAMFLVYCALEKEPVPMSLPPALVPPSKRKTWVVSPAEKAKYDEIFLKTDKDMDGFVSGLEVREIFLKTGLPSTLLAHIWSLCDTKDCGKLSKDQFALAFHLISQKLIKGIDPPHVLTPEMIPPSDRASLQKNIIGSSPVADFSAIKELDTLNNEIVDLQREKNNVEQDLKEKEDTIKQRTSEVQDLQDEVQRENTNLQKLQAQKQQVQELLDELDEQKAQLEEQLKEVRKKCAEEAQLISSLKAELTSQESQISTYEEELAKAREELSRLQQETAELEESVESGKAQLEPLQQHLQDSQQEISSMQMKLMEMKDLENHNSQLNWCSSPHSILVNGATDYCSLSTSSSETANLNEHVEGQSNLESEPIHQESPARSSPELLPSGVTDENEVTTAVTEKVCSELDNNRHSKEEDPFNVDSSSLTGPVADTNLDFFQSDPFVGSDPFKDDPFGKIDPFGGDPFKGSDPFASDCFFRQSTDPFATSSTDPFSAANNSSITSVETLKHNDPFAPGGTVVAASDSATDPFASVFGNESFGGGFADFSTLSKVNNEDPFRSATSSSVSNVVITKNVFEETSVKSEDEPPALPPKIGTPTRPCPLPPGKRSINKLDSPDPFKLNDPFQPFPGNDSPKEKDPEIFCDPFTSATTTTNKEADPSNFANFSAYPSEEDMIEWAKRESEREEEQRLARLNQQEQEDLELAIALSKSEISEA
# Variants of: B1
# Conditions: with eps15_human EPS15, P42566
row,Variant,effect of a mutation on the interaction
1,MAASAKRKQEEKHLKMLRDMTGLPHNRKCFDCDQRGPTYVNMTVGSFVCTSCSGSLRGLNPPHRVKSISMTTFTQQEIEFLQKHGNEVCKQIWLGLFDDRSSAIPDFRDPQKVKEFLQEKYEKKRWYVPPEQAKVVASVHASISGSSASSTSSTPEVKPLKSLLGDSAPTLHLNKGTPSQSPVVGRSQGQQQEKKQFDLLSDLGSDIFAAPAPQSTATANFANFAHFNSHAAQNSANADFANFDAFGQSSGSSNFGGFPTASHSPFQPQTTGGSAASVNANFAHFDNFPKSSSADFGTFNTSQSHQTASAVSKVSTNKAGLQTADKYAALANLDNIFSAGQGGDQGSGFGTTGKAPVGSVVSVPSQSSASSDKYAALAELDSVFSSAATSSNAYTSTSNASSNVFGTVPVVASAQTQPASSSVPAPFGATPSTNPVVAAAGPSVASSTNPVQTNARGATAATFGTASMSMPTGFGTPAPYSLPTSFSGSFQQPAFPAQAAFPQQTAFSQQPNGAGFAAFGQTKPVVTPFGQVAAAGVSSNPVMTGAPTGQFPTGSSSTNPVL [F436V;F451V;F542V;F561V],disrupting interaction
